Where no end group is shown, it is not given here.
How the values were obtained:
Conditions in all cases: both partners purified
[1] = target: T1, Tks4 PX–SH3_(1) fragment (residues 1–210) (human, UniProt A1X283 1-210); experiment: MST; NT-647-labelled SH3_(3) constant at 20 nM, titrated with PX–SH3_(1) (16-step 2:3 dilutions from 412 µM) or, as a control, with SH3_(1); PBS, 0.5 mM TCEP, 0.05% TWEEN 20; room temperature
T1 construct: human Tks4 (SH3PXD2B), residues 1-210: PX and SH3_(1) domains; The vector has a TEV site after the His-tag; source: E. coli Rosetta pLysS, purified
T1 sequence (looked up): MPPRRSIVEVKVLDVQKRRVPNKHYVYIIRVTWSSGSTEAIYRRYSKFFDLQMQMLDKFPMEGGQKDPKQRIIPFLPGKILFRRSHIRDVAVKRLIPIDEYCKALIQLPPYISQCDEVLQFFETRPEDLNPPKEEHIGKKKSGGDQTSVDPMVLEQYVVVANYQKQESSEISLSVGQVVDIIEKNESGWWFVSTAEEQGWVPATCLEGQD

[2] = target: T2, Tks4 PX–SH3_(2) fragment (residues 1–279) (human, UniProt A1X283 1-279); experiment: ITC; PX–SH3_(2) 20 µM in the cell, PRR–SH3_(3) 250 µM in the syringe; 25 °C; PBS with 0.5 mM TCEP; one set of independent binding sites model
T2 construct: human Tks4 (SH3PXD2B), residues 1-279: PX, SH3_(1) and SH3_(2) domains; The modified pET vector has a TEV site after the His-tag; source: E. coli Rosetta pLysS, purified
T2 sequence (looked up): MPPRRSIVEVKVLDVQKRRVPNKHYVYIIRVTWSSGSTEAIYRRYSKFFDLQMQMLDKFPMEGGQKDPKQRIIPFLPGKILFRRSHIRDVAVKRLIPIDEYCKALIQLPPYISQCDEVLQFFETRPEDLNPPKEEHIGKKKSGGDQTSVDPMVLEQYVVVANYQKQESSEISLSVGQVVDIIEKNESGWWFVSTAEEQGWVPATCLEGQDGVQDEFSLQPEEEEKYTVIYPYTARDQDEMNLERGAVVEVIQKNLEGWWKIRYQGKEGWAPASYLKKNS

[3] = target: T2, Tks4 PX–SH3_(2) fragment (residues …); experiment: MST; NT-647-labelled PRR–SH3_(3) constant at 20 nM, titrated with PX–SH3_(2) (16-step 1:2 dilutions from 40 µM); PBS, 0.5 mM TCEP, 0.05% TWEEN 20; room temperature; 1:1 Kd fit
[4] = target: T3, Tks4 SH3_(1)–SH3_(2) tandem SH3 fragment (residues 155–279) (human, UniProt A1X283 155-279, NT-647 amine-reactive dye (in the MST only)); experiment: other fluorescence titration; intrinsic tryptophan fluorescence (excitation 295 nm, followed at 340 nm); SH3_(1)–SH3_(2) constant at 5 µM, PRR fragments 1.8–100 µM; PBS, 0.5 mM TCEP, 0.05% TWEEN 20; 1:1 binding model
T3 construct: human Tks4 (SH3PXD2B), residues 155-279: first and second SH3 domains with their linker; The vector has a TEV site after the His-tag; Unlabelled in the tryptophan fluorescence titrations; source: E. coli Rosetta pLysS, purified
T3 sequence (looked up): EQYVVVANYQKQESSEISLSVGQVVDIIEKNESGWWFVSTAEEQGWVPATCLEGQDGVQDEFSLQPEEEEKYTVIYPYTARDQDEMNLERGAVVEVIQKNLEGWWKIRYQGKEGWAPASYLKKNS

[5] = target: T3, Tks4 SH3_(1)–SH3_(2) tandem SH3 …; experiment: MST; NT-647-labelled SH3_(1)–SH3_(2) constant at 20 nM, titrated with PRRL (16-step 2:3 dilutions from 166 µM); PBS, 0.5 mM TCEP, 0.05% TWEEN 20; room temperature; standard Kd fit model
[6] = target: T3, Tks4 SH3_(1)–SH3_(2) tandem SH3 …; experiment: other fluorescence titration; intrinsic tryptophan fluorescence (excitation 295 nm, followed at 340 nm); SH3_(1)–SH3_(2) constant at 5 µM, PRR fragments 1.8–100 µM; PBS, 0.5 mM TCEP, 0.05% TWEEN 20; 1:1 binding model; remark: listed apart in the source

B1: Tks4 SH3_(3) domain (residues 371–426) (domain or fragment, human, UniProt A1X283 371-426, looked up)
chain: EEYYTIAEFQTTIPDGISFQAGLKVEVIEKNLSGWWYIQIEDKEGWAPATFIDKYK
modifications: also: NT-647 amine-reactive dye label, site not given here (MST only)
notes: human Tks4 (SH3PXD2B), residues 371-426: third SH3 domain; The vector has a TEV site after the His-tag; also called third SH3 domain; source: E. coli Rosetta pLysS, purified
In the case of B1, the Kd [1] is reported as > 50 µM.

B2: Tks4 PRR–SH3_(3) fragment (residues 333–426) (domain or fragment, human, UniProt A1X283 333-426, looked up)
chain: GDAKQRSPKMRQRPPPRRDMTIPRGLNLPKPPIPPQVEEEYYTIAEFQTTIPDGISFQAGLKVEVIEKNLSGWWYIQIEDKEGWAPATFIDKYK
modifications: NT-647 amine-reactive dye (in the MST only)
notes: human Tks4 (SH3PXD2B), residues 333-426: proline-rich region and SH3_(3) domain; The vector has a TEV site after the His-tag; Labelled in the MST, unlabelled in the ITC; source: E. coli Rosetta pLysS, purified
Binder B2 has a Kd [2] of 0.3 ± 0.2 µM and a Kd [3] of ~0.24 µM.

B3: Tks4 PRRS peptide (peptide)
peptide: KMRQRPPPRRDMTIPRG
notes: human Tks4 (SH3PXD2B), truncated version of PRRL containing only the PTAM; source: synthetic peptide (Fmoc/tBu SPPS, RP-HPLC purified)
Work on B3 yielded a Kd [4] of 12 µM.

B4: Tks4 PRRL fragment (residues 333–370) (domain or fragment, human)
chain: GSHMGDAKQRSPKMRQRPPPRRDMTIPRGLNLPKPPIPPQVE
notes: four N-terminal residues that are cloning artifacts; human Tks4 (SH3PXD2B), residues 333-370: proline-rich region with the PTAM (PPPRR) and the PKPPIPP motif; also called wild type PRRL; not shown: His-tag, N-terminal, cleaved
With B4 the Kd [5] was 15 µM, the Kd [6] was 24 µM and the Kd [4] was 11 µM.

B5: Tks4 PRRL^T353E phosphomimetic mutant fragment (domain or fragment, human)
chain: GSHMGDAKQRSPKMRQRPPPRRDMEIPRGLNLPKPPIPPQVE
notes: four N-terminal residues that are cloning artifacts; human Tks4 (SH3PXD2B), residues 333-370 with the phosphomimetic Thr-to-Glu mutation T353E; not shown: His-tag, N-terminal, cleaved
B5 gave a Kd [4] of 10 µM.
